Molecular target: glycosylated Aeromonas caviae polar flagellin FlaA, FlaA (+pse) (Aeromonas caviae (endogenous in A. caviae Sch3N and its flaB mutant AAR27))
Test: far-Western, overlay or dot blot; glycosylated and unglycosylated FlaA titrated across an SDS-PAGE gel, transferred to nitrocellulose, probed with a constant concentration of GST-FlaJ; αGST-HRP, densitometry, triplicate blots

B1: GST-tagged Aeromonas caviae flagellin-specific chaperone FlaJ (GST-FlaJ) (natural protein)
chain: MYKRNIKAYTAGNLAADLATADPHRVIQLMMQGCLERLAQAKGAIERNDMEAKSIAISKAQGLLHGLQDALDMSQGRMAEDLYGLYAYMDERVWDASLNRDTEPLEEVMTLMLTIKSGWDQLPETEKNQGYQMRQQLGEL
Q: With B1 as the binder, how does the fold more GST-FlaJ bound than to equimolar unglycosylated FlaA read?
A: 5 fold
